Results reported in article PMC3070698.

Columns and labels:
[1] = biological target: T1, TLR9 tagged at the C terminus with enhanced green fluorescent protein, Q9NR96; assay: photon counting histogram (PCH); live HEK 293 cells expressing TLR9-GFP; molecular brightness compared with GFP monomer; two-component global fit with the brightness of GFP monomer and GFP dimer fixed; bin size 50 µs; without DNA, with CpG DNA or with non-CpG DNA; monomer to dimer; details: remark: other sources report otherwise
T1 chain: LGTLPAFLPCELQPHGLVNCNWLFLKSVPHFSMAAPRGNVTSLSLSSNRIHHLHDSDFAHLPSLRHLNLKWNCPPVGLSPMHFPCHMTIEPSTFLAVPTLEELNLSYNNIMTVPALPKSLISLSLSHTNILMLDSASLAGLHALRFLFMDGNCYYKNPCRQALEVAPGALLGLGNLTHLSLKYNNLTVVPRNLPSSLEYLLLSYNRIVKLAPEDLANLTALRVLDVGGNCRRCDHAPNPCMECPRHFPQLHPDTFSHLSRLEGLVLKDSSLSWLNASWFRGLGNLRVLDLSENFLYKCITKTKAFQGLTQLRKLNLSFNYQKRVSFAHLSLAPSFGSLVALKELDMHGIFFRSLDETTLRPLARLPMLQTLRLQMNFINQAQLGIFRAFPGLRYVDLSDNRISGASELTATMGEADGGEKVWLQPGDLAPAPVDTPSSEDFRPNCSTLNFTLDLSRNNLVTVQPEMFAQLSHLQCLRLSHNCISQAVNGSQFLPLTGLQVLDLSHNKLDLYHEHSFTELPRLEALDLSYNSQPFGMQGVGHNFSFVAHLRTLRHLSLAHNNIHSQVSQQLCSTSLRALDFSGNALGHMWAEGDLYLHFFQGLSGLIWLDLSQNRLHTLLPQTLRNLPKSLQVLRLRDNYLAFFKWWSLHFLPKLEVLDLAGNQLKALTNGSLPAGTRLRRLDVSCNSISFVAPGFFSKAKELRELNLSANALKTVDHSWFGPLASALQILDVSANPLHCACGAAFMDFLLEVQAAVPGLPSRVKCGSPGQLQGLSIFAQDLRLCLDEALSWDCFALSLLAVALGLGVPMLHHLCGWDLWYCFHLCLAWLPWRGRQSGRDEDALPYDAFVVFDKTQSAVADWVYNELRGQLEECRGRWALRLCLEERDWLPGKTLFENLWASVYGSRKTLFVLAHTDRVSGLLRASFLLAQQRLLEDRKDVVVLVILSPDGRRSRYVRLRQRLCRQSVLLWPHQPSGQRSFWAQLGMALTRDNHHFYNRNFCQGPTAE

[2] = biological target: T1, TLR9 tagged at the C terminus with …; assay: two-dimensional photon counting histogram (2dPCH); live HEK 293 cells expressing TLR9-GFP, incubated with Cy5-labelled CpG or non-CpG DNA; single-component fit; brightness in the green and red channels; bin size 50 µs; details: remark: other sources report otherwise

B1: TLR9 tagged at the C terminus with enhanced green fluorescent protein, Q9NR96 26-1032 (receptor)
chain: T1 chain
percent of TLR9 as dimers (no DNA) [1]: 79.1%
percent of TLR9 as dimers (with CpG DNA) [1]: 82.6%
percent of TLR9 as dimers (with non-CpG DNA) [1]: 82.6%
stoichiometry N [1]: 2
stoichiometry N [2]: 2
